Source: patent publication US20250213710A1 (PHENOMIC AI, published 2025)

Assays:
[1] = molecular target: integrin αV on ovarian cancer cells (SKOV3) (human) (UniProt P06756); assay: cell-based or functional assay
[2] = molecular target: integrin β1 on ovarian cancer cells (SKOV3) (human) (UniProt P05556); assay: cell-based or functional assay
mouse CTHRC1 [3] = molecular target: T1, mouse CTHRC1 (mouse, UniProt Q9D1D6 33-245, limits assumed); assay: binding EC50 on muCTHRC1 (assay not named)
T1 construct: also called muCTHRC1

[4] = molecular target: recombinant human CTHRC1 (Collagen Triple Helix Repeat Containing 1) (human) (UniProt Q96CG8); assay: binding EC50 on huCTHRC1 (assay not named)
rat CTHRC1 [5] = molecular target: T2, rat CTHRC1 (rat, UniProt Q8CG08 33-245, limits assumed); assay: binding EC50 on rat CTHRC1 (assay not named)
mouse CTHRC1 [6] = molecular target: T1, mouse CTHRC1; assay: assay not named (Table 2 EC50 columns show n/a)
rat CTHRC1 [7] = molecular target: T2, rat CTHRC1; assay: assay not named (Table 2 EC50 columns show n/a)
[8] = molecular target: recombinant human CTHRC1 (Collagen Triple Helix Repeat Containing 1) (human) (UniProt Q96CG8); assay: cell-based or functional assay

Chain of recombinant human CTHRC1 (Collagen Triple Helix Repeat Containing 1) (human) (Q96CG8 31-243): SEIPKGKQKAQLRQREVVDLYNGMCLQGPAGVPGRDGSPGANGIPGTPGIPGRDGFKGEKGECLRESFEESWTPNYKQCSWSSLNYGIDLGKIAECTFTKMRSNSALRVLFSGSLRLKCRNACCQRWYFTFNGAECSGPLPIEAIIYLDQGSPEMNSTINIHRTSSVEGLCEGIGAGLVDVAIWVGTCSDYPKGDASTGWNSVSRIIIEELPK
Chain of integrin β1 on ovarian cancer cells (SKOV3) (human) (P05556 21-798): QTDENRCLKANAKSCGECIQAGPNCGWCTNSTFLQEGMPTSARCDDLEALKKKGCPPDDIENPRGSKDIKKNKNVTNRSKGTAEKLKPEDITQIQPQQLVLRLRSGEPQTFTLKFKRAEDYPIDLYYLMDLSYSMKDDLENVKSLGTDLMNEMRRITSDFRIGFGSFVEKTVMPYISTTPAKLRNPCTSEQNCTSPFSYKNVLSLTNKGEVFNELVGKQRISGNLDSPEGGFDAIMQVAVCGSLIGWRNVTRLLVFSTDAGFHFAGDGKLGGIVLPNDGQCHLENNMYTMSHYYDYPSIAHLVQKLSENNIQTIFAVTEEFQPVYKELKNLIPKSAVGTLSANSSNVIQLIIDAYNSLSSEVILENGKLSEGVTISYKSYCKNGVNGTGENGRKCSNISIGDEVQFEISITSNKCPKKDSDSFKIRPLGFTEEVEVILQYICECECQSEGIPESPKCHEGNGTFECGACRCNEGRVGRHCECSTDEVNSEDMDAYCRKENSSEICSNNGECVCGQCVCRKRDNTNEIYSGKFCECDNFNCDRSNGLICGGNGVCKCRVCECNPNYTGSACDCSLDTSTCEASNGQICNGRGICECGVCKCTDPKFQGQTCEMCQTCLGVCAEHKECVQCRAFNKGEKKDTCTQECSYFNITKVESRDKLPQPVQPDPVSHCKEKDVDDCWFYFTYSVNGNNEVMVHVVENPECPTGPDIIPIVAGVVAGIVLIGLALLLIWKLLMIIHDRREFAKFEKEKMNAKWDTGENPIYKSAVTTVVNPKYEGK
Chain of integrin αV on ovarian cancer cells (SKOV3) (human) (P06756 31-1048): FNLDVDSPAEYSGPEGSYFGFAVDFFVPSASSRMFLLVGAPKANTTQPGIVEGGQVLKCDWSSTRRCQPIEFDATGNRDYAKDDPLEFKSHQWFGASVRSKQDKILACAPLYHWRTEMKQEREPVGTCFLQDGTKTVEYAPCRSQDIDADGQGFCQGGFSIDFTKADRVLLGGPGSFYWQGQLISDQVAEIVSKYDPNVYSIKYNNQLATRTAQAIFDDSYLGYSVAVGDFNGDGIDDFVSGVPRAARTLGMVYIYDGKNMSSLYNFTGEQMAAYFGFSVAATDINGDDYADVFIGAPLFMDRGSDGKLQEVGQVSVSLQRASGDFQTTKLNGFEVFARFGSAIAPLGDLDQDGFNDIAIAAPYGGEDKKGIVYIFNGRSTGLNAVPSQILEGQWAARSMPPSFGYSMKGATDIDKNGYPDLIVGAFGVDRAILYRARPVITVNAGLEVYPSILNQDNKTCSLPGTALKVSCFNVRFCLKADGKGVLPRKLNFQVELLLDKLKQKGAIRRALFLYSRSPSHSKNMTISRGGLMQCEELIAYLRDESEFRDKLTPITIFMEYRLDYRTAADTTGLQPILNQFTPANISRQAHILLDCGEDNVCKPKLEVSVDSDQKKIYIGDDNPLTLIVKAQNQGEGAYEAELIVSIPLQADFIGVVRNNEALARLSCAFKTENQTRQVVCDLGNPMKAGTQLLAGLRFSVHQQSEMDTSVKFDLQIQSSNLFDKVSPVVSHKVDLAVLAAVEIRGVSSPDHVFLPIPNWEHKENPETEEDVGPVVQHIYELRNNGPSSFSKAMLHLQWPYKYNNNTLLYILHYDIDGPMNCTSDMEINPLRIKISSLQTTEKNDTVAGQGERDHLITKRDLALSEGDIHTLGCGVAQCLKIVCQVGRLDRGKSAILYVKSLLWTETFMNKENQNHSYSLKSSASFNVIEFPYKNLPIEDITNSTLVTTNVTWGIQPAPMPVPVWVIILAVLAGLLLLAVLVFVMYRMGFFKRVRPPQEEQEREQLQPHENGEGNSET
T1 sequence (Q9D1D6 33-245 limits assumed): as the sequence (Q96CG8 31-243) above, with I3N, G6V, Q11L, L12I, M155L counted along it
T2 sequence (Q8CG08 33-245 limits assumed): as the sequence (Q96CG8 31-243) above, with I3N, G6V, Q11L, L12I, M155L counted along it

cell adhesion of ovarian cancer cells to CTHRC1 after 1 hour with 100 nM integrin αV antibody [1] [fold] | cell adhesion of ovarian cancer cells to CTHRC1 after 1 hour with a combination of integrin β1 antibody and integrin αV antibody [1] [fold] | decrease in cell adhesion of ovarian cancer cells to CTHRC1 after 1 hour with 100 nM integrin αV antibody [1] [%] | cell adhesion of ovarian cancer cells to CTHRC1 after 1 hour with 100 nM integrin β1 antibody [2] [fold] | cell adhesion of ovarian cancer cells to CTHRC1 after 1 hour with a combination of integrin β1 antibody and integrin αV antibody [2] [fold] | decrease in cell adhesion of ovarian cancer cells to CTHRC1 after 1 hour with 100 nM integrin β1 antibody [2] [%] | EC50 (mouse CTHRC1 [3]) [nM] | EC50 [4] [nM] | EC50 (rat CTHRC1 [5]) [nM] | binding result (mouse CTHRC1 [6]) | binding result (rat CTHRC1 [7]) | blocking of cell adhesion to CTHRC1 (cell adhesion assay) [8] [%] | Molecule
2 | 2 | 40 | 2 | 2 | 75 | – | – | – | – | – | – | recombinant human CTHRC1 (Collagen Triple Helix Repeat Containing 1) (from UniProt Q96CG8 31-243)
– | – | – | – | – | – | 0.94 | 0.05 | 0.05 | – | – | – | CTHRC1S-M14 (AB991) (antibody, V domains shown, Monoclonal antibody purified from a hybridoma of a humanized transgenic mouse; also called anti-CTHRC1 clone M14) VH: EVQVVESGGGLVQPGGSLRLSCAASRFTFSNYWMSWVRQAPGRGLEWVANIKQDGSEKYYVDSVKGRFTISRDNAKNSLYLQMNSLRAEDTAVYYCAREGGYCSDTRCFFYMDVWGKGTTVTVSS VL: DIQMTQSPSTLSASVGDRVTITCRASQSIISWLAWYQQKPGKAPKLLIYKASSLEGGVPSRFSGSGSGTDFTLTISSLQPDDFATYYCQQYNSYSRTFGQGTTVEIK
– | – | – | – | – | – | – | 9.76 | – | no binding | no binding | > 50 | CTHRC1S-M11 (AB989) (antibody, V domains shown, Monoclonal antibody purified from a hybridoma of a humanized transgenic mouse; also called CTHRCIS-M11) VH: QVTLRESGPALVKPTQTLTLTCTFSGFSLSTNVMCVSWIRQPPGKALEWLALIDWDDDKYYSTSLKTRLTISKDTSKNQVVLTMTNMDPVDTATYYCARTGITGTHYYYYYMDVWGKGTTVTVSS VL: AIQMTQSPSSLSASVGDRVTITCRASQGIRNDLGWYQQKPGKAPKLLIYAASSLQSGVPSRFSGSGFGTDFTLTISSLQPEDFATYYCLQDYNYPWTFGQGTKVEIK
– | – | – | – | – | – | 0.26 | 1.85 | 1.73 | – | – | > 50 | CTHRC1S-M5 (AB987) (antibody, V domains shown, Monoclonal antibody purified from a hybridoma of a humanized transgenic mouse immunized with rhCTHRC1; also called CTHRCIS-M5; anti-CTHRC1 clone M5) VH: EVQLVESGGGLVTPGGSLRLSCAASGFTFSTYSMNWVRQAPGKGLEWVSSISGSSGHIYYADSVRGRFTISRDNAKNSLYLQMNSLRAEDTAVYYCASMHYYYYLDVWGKGTTVTVSS VL: QAVVTQESALTTSPGETVTLTCRSSTGTVTTSNYVTWVQEKPDHLFTGLIGATNNRAPGVPARFSGSLIGDKAALTITGAQTEDEAIYFCALWYSNHWVFGGGTKLTVL
